Reference: patent US20220396632A1

B1: 01A04 (antibody, IgG4, V domains shown)
VH: EVQLVQSGAEVKKPGASVKVSCKASGYTFTSYYIHWVRQAPGQGLEWMGIIRPSGGSTSYAQKFQGRVTMTRDTSTSTVYMELSSLRSEDTAMYYCARVGVGSFDYWGQGTLVTVSS
VL: DIQMTQSPSTLSASVGDRVTITCRASQSVSNWLAWYQQKPGKAPKLLIYKASSLESGVPSRFSGSGSGTEFTLTISSLQPDDFATYYCQWFRTFGPGTKVDIK
B2: 03D01 (antibody, IgG4, V domains shown)
VH: EVQLVQSGGGLVQPGGSLRLSCAATGFTVSRNYMTWVREAPGKGLEWVAGIYKSGTTSYIESVKGRFTISRDNSKNTLYLEMSRLRAEDTAVYYCAKSTSTWGQGTQVTVSS
VL: DVVMTQSPVSLPVTLGQPASISCRSSRNLLYSNGNTYLNWFHQRPGQSPRRLIYKVSNQDSGVPDRFSGSGSGTDFTLKISRVEAEDVGVYYCMQGTHWPTTFGQGTRLEIK
B3: 09D11 (antibody, IgG4, V domains shown)
VH: QVQLVESGGGFIQPGGSLRLSCAASGLTFSNYAMTWVRQAPGKGLEWVSTISGGGGNTYYTDSVKGRFTISRDNSKNTLYLQMNSLKAEDTAVYRCAKGLAAALFDYWGQGTLVTVSS
VL: DIVLTQSPDSLPVTPGEPASISCRSSRSLLHSNGHNFLAWYLQKPGQSPHLLIYLGSNRASGVPDRFSGSGSGTDFTLKISRVEAEDVGIYYCMQALQTPITFGQGTRLDIK
B4: 09B09 (antibody, IgG4, V domains shown)
VH: EVKLLESGGGLVQPGGSLRLSCAASGITFSTYAMMWVRQAPGKGLEWVSGISGSGASRYYADSVKGRFTISRDNSKNMLYLQMNSLRAEDTAVYYCAKKVLGRRKQYFDDWGQGTLVTVSS
VL: DIVMTQSPLSLPVTPGEPASISCRSSQSLLHSNGYNYLDWYLQRPGQSPQLLIYLGSHRASGVPDRFSGSGSGTEHTLKITTVAAEDVGVYYCMQALQSPPTFGQGTRLDIK

Biological target: T1, Scrambled Y42,52,63(SO3) PSGL-1(42-62) biotin peptide
T1 sequence (peptide, sulfotyrosine at peptide positions 1, 11 and 22; C-terminal Lys-biotin): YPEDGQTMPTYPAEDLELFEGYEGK
Test: ELISA, immobilized biotin peptide

Binder | A450nm, 20 nM mAb
B1 | 0.13 A450nm
B2 | 0.12 A450nm
B3 | 0.09 A450nm
B4 | 0.37 A450nm
